Laboratory results from US20080131910A1 (LUDWIG INSTITUTE FOR CANCER RESEARCH, published 2008).

Key:
[1] = target: T1, ALK-6 (activin receptor like kinase 6), mouse (mouse, UniProt P36898 14-502); experiment: affinity cross-linking followed by immunoprecipitation, COS-1 cells co-transfected with ActR-II and the ALK
T1 construct: Expressed from cDNA in COS-1 cells; also called mALK-6; clone ME-6

[2] = target: T2, ALK-5 (activin receptor like kinase 5), human TGF-β type I receptor (human, UniProt P36897 25-503); experiment: as above
T2 construct: Expressed from cDNA in COS-1 cells and PAE cells (PAE/TβR-I), or endogenous in human cell lines (AG1518, A549, HSC-2, HUVEC); also called hALK-5; clone EMBLA
T2 sequence: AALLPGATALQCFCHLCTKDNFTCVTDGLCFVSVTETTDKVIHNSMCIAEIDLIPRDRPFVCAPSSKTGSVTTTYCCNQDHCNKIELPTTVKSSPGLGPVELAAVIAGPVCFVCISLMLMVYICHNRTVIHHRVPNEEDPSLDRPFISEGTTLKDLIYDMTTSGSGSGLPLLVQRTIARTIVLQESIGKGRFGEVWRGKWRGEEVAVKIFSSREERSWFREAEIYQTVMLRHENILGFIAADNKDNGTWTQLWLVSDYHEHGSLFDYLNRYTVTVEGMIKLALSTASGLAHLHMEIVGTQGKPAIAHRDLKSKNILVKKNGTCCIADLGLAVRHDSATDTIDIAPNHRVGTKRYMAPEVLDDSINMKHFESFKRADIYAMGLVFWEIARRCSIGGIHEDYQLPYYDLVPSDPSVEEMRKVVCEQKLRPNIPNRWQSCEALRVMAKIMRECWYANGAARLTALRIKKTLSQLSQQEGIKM

T1 sequence (P36898 14-502 limits assumed): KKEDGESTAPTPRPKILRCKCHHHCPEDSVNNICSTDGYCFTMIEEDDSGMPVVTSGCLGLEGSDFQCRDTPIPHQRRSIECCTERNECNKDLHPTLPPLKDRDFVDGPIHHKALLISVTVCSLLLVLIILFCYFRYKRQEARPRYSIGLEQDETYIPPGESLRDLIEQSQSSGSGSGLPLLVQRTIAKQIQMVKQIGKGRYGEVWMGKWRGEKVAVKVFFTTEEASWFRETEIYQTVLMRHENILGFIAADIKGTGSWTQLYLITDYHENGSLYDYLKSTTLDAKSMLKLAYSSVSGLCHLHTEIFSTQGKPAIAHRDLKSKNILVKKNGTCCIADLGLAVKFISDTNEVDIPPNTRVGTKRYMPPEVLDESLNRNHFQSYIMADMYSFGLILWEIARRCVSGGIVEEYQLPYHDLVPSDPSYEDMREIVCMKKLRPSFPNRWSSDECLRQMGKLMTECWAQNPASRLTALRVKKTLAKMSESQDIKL

- binding result [1]: binds
- binding result [2]: binds
B1: Recombinant human activin A (ligand, UniProt P08476 311-426, looked up)
chain: GLECDGKVNICCKKQFFVSFKDIGWNDWIIAPSGYHANYCEGECPSHIAGTSGSSLSFHSTVINHYRMRGHSPFANLKSCCVPTKLRPMSMLYYDDGQNIIKKDIQNMIVEECGCS
modifications: 125I-iodinated (chloramine T method)
